Source: publication PMC10643122

What was measured:
[1] = target: full-length LRRK1 (Leucine Rich Repeat Kinase 1) (human) (UniProt Q38SD2); assay: cryo-EM structure; 5.2 μM LRRK1(FL) with GDP, 0.06% brij-35 added directly before vitrification; C2 symmetry
[2] = target: full-length LRRK1 (Leucine Rich Repeat Kinase 1) (human) (UniProt Q38SD2); assay: mass photometry; full-length LRRK1 diluted to 100 nM in 20 mM HEPES pH 7.4, 150 mM NaCl, 2.5 mM MgCl2, 1 mM GDP, 0.5 mM TCEP, 0.5% glycerol; 30 min at room temperature; Refeyn TwoMP; Gaussian fits of the histograms, law of mass action; dimer to monomers; estimated Kd

Q: “full-length LRRK1 (Leucine Rich Repeat Kinase 1), Q38SD2-1 1-2015” was tested. Which stoichiometry N [1] did it give?
A: The stoichiometry N was 2.

Q: What about the Kd [2] of the same substance?
A: Its Kd is 600 nM.
